Measured values published in a protein production outcome set (Wang et al. 2014).

Assay: label from the status in PepcDB records

Row | Sequence | protein production
1 | MDHAAVLALFDRDMREGARPDGPGARIERVPGVVRQVASEHGWNGVVWSGLDEASADAAIAEQQRYFAGLGREFEWKLYGHDLPEDLGRRLRAAGFTAAPEETLMVAEVADLTLDVEPPDGVRIVPVTDRAGVDLVADVHEKAFGTDSTRMRHQLLAQVTDDPDAVVAVVALAGDEPVSAARMELVPGTRFAGLWGGGTVEGERGRGIYRALVAHRAKVAADRGYRYVQVDATSQSRPVLARLGFEPLTTTTPYVSP | not failed
2 | MSLGKRIFVFDTTLRDGEQVPGCQLNTEEKIIVAKALDELGVDVIEAGFPVSSPGDFNSVVEITKAVTRPTICALTRAKEADINIAGEALRFAKRSRIHTGIGSSDIHIEHKLRSTRENILEMAVAAVKQAKKVVHEVEFFCEDAGRADQAFLARMVEAVIEAGADVVNIPDTTGYMLPWQYGERIKYLMDNVSNIDKAILSAHCHNDLGLATANSLAALQNGARQVECTINGIGERAGNTALEEVVMAMECHKETLGLETGINHKKLVPISHLVSTLMRMQVQSNKAIVGRNAFAHSSGIHQDGFLKHRETYEIIDEGHHHHHH | not failed
3 | MSKHTVLFELGCEELPPKSLKTLRDALQAETVKGLKDAGLAFASIEAYAAPRRLALKIVDVDGAQADTQKRFDGPAVQAAYDAEGKPTKALEGFMRGQGITADQVSTFQAGKVEKVCYLKDVKGQTLDALLPQILQTALDNLPIAKRMRSAASRTEFVRPVKWVVLLKDDQIIEATIQDHQAGNVTYGHRFHAPEAVTLAHANDYLAALEKAYVVANFEKRQATIQEQVKKLADEVNATAIVPADLLDEVTSLVEWPVALRANFEERFLAVPQEALITTMQDNQKYFCLINSEGKLQPYFITVSNIESKDPTQIIEGNEKVVRPRLSDAEFFFLQDQKQPLASRKEKLANMVFQAQLGTLWDKSTRIAKLAVALSPITGANPADAEKAALLAKCDLTSELVGEFPELQGIAGTYYARIEGENTEVSEALGEQYLPKFAGDVLPKTKTGTTIALADRLDTLVGIFGIGQAPTGSKDPFALRRSAIGILRLIIENELDVTIEELVNLALQGYGDIVKDHDKTLADAVAFLEGRYRAKYEDQGVAVDVLQAVQALAPKS | failed
4 | MNTSGIGGYFRQGLFGRDLLASVVVFLVALPLCMGIAIASGMPPAAGLITGIVGGLVVGFLAGSPLQVSGPAAGLAVLVFELVREHGAVALGPVILVAGAIQLIAGLCRAGVWFRMTSPAVVAGMLSGIGILIVASQAHVLMDAAPKARGLENFAALPGVLWQAISEGTGRNALFVGLATIGIILAWDKLRPQRLRFLPGALIAVVVVTATVQLQGLNVNKVDVPTNLFSAISIPSISDIFGVFNHTLLVSAVTFAFIASAETLLSAAAVDRMHQGARTQYDRELAAQGVGNMLCGFLGALPMTGVIVRSAANVQAGAATRASTILHGSWLLVFAMLLPWLLRMTPVACLAGILVYTGVKMIKIGQVKELATYGRGTAAIYLATTFAIVATDLLTGVLIGFGLSLFRLALHSSRLKVEVREHADKKDEMHLTLQGSATFLKVPAMARTLESVPPNTALHLDVAKLHHVDHACIELLRDWSRNAASRGCELVVDWKELDRRVEGQPTVDGVLVEQRVEQAKAA | failed
5 | MAQQTPLYEQHTLCGARMVDFHGWMMPLHYGSQIDEHHAVRTDAGMFDVSHMTIVDLRGSRTREFLRYLLANDVAKLTKSGKALYSGMLNASGGVIDDLIVYYFTEDFFRLVVNSATREKDLSWITQHAEPFGIEITVRDDLSMIAVQGPNAQAKAATLFNDAQRQAVEGMKPFFGVQAGDLFIATTGYTGEAGYEIALPNEKAADFWRALVEAGVKPCGLGARDTLRLEAGMNLYGQEMDETISPLAANMGWTIAWEPADRDFIGREALEVQREHGTEKLVGLVMTEKGVLRNELPVRFTDAQGNQHEGIITSGTFSPTLGYSIALARVPEGIGETAIVQIRNREMPVKVTKPVFVRNGKAVA | not failed
6 | MDVLRKQEILPQLPKLDKYERKSSCGNTWQGSLSETESWREKLRYLTDYRLERGRFDKDTDFLSTFQPKQNEVQRNNISFEFDSDKSSRKTDFPGILTERPVLLRTNQEPDVYGARLRELSAANAEGERNVFHEDKTSSSQSKLPSFEIFSAIGQKEDIPGYQGGCLRGETVLKTAAVASPQIADRNSRVSFHDGGILQPINSPTGFSQPRNDNNSYKTSSSEENLYSIRQLPWSEYARTRNYDCVEPSLGVSISDEQRRFGENALCMSVSQPMYEEPHPLVTLRSTEGLTQEQKQLRR | failed
7 | MTLDPTPALSALRSGDFRTVQKLARRALKLAKGDPGWLNLAAIAESGLGRPKAALPHFQLALKLAPDFHDARRNLAQTLVILGRLDEAERHLQQLTGTNPQDAEAWALLSQAAMGRGDGDAALAAADRYVDLRPGQARGLMLRATLHGRLGDEAAALADLQQAQMAEPDNVDLLIALSLPLARADHPGAAIDVARRAVELAPRHIPARLTLAMRHVEQGDSDAAKAMYHRVLEIAPDQAEALEQLAHLNDAAENQRLAPQVQTALKTAEAGSLDKAQLHFALARIAAQSADDDGLARNLTRANATMARLMPYDAGADTRLSEALMARFAPGADCDGPGDGPAPFYVLGLPRSGTSLTEAVLGAHPVVHPLGERIAPGRLLAPLIDGGLPFDAQARAAFRKGEAASLPALPEGTRFYTDKMPENYRLVGFLLAARGDARVIHLRRDPRDVALSLWQAHLAGSALNYAYDLGAMAHRFNLYARMMAHWRAIFPDRILDLPYEELVADVTRASQRLAEWLGLVWDPEMARPERSTSQILTLSASQLRQPVHTRSVGKWRKHEAMLAPFIAGLDPGLWPELGQSGI | failed
8 | MRNLRKDIVSRSSVGSIQIHGAKTHNLRDVTVCIPKHALVGVAGVSGSGKTSLVSTLAVGAQQAVSSLFPAFVQARLNTLEPGLVDGLQGLTFTAIVGQKKFSRNARSSVSTASGIAPYLRLLFSRSGSPSAGYSPSYSPNDPRGMCMDCSGLGYVDDIDLQELIAPDRSLNEGAVRFPSFEPGTYRWKRLVCSGLFDPDVPWKELPEASRKLLLHGQGVRLERPLTGYPKHGIFDGIIPRLKASYLEKANAKTTEKEDAALRRIVKRVVCPHCHGQRINEAARASRIEGLNIAEASHLSIDECIAFIKTITDEITEAPRQAVLARLNNMRDIGLGYLSLDRPTDTLSGGEAQRLRLVSLLDAPITDATFVMDEPSSGLHPADIERLLRSLRKLRDSGNTVIIVEHNLQVLAACDHVVELGPGAGDDGGRVLFEGSPRSLTRSDTPTGKALRAGIQLNRRSRPATDVIEVTHARCNNLGDVSVSFPVGALTVVSGVAGSGKSSLASALAQQHPEVTIIDQLPLAASSRSSILTALGLESPIREAFSKISGLTTSWFSANEKGACPLCKGRGTTHVDMAFMDDVQTPCERCGGRKFNETTMAVRLPMGSLNPTIADVLDSGLNQVSELYATQDDVLTVISLLQQVGLGYLTLGRTLNTLSGGELQRIKLVQFLKEHREEQESVLVLDEITTGLHPKDVEQLIQFLRRLSERGATAIAIDHNPGLISQADYNIDLGPGAEAAGGTVVFSGTAQGLADCPESTTGKWLHKLNCSSSGVEQVP | failed
9 | MVSAAGELGTLRQRAWAAAANVVDPEIPVLTIEDLGVLRDVTVSGDRIEVSITPTYSGCPAMTMIALEIELALAREGIAGAKITTVLSPAWTTDWMSDAGRRKLRDYGIAPPLSGGGRRALFGEQQVACPQCGSIATTVLSEFGSTSCKALWRCLDCREPFDYFKCH | failed
10 | MEALRLGFSPCPNDTFIFYALVHGRVESPVPLEPVLEDVETLNRWALEGRLPLTKLSYAAYAQVRDRYVALRSGGALGRGVGPLVVARGPLQALEGLRVAVPGRHTTAYFLLSLYAQGFVPVEVRYDRILPMVAQGEVEAGLIIHESRFTYPRYGLVQVVDLGAWWEERTGLPLPLGAILARRDLGEGLIRALDEAVRRSVAYALAHPEEALDYMRAHAQELSDEVIWAHVHTYVNAFSLDVGEEGERAVARLFAEAEARGLAAPSPRPLFV | not failed
11 | MKILSFAVLAAICLPMMPITTFAAETSATNALSQSQLFSRGDEYANVKISPTGKYLSAITSVEGKNVLLVLDAQTKKLLNAIRFPSNAQVGTYEWASSERIVLAKEYLKGWSDVPQYYGELMAVNADGSRPAYLFGFNSGEQQTGSNIKKNTAIKATAFILDPLPDDERYMLVNAIPWNNESSLNLELKQDVYRVDLFSGVRKRITGSPIGQARFMTDHEGEVRFVTGEDGQNVTKVFYRKDGDWVNTDKLNLGLSDFTPISFADNKNTIYAAGRVGTETLGVYRINLETGEKTEIIQDEVVDPSNFWINGTNKQLYAVEFENGYPSYAFVDNNDNHAKLLKDLIAALPGHQVQIVSETRNGEQLVVIAFNDRNPGDYYLFDTKKLKLEYLAAARKWLDPEQMAEVKPISFTNRDGQKIHGYLTLPYGKEAKNLPLVVNPHGGPHGIRDWWGFDPQNQLLAQNGMAVLQVNFRGSGGYGERFEQAGYQKWGSDIQHDIIDATQYVIGQGFVDKERICIAGGSFGGYSALQSAVLAPDMFKCAVGFAGVYDLELMFDEGDVARTRSGTSYLKDVLGQDKATLKAMSPSENVAKLKANLLLVHGGEDERAPIEQLESLEKALKNHNYPYQKLVMDNEGHGFYNDTHRAKYYDQMLSFLKTNLKL | failed
12 | MSVNGAFSPCVVIPCYNHGAMMASVLVRLAPLALPVFIVDDGSDAATQHVLNLLAAENDGVTLIRLANNSGKGAAVMRGIEAVAQAGFSHALQVDADGQHQIEDAPLLLDEAKTHPDCLISGRPRYDDSVPKSRLYGRYVTHVWVWIETLSLSIKDSMCGFRVYPVAATVSLLSRKSLGRRMDFDTEIMVRLYWAGTPSRFIETAVTYPENGLSHFDALHDNLRISWMHTRLFFGMLPRIPVLLMRQRQQHWAGVSERKGLLGMRFMLAVYQRLGRGVFTLFLWPVIAFYWLTGRTARKASQSWLRQIGEYAHQQDILLPKPLNSYHHFLRFGQAMLDKIASWRGDLHWGRDIDFAPGAQEAIEHGRQKGQLILASHLGDIEVCRALAPQVSGLVINALVFTENSQRFKQVLEEIAPQAGVNLIPVSNIGPDTAIMLQQKLDAGEWVAIVGDRTAVHRQRGGVRRVVWSPFLGKEAPFPQGPFVLAAALRCPVLLMFVIREQKKLRVYCEPFADSITLPRPTRQQALQQVVDRYAERLAHYALKSPLDWFNFFDFWSLPDDDGRTAGKKESLEHHHHHH | failed
13 | MSLLTEVETYVLSIIPSGPLKAEIAQKLEDVFAGKNTDLEALMEWLKTRPILSPLTKGILGFVFTLTVPSERGLQRRRFVQNALNGNGDPNNMDRAVKLYKKLKREITFHGAKEVALSYSTGALASCMGLIYNRMGTVTTEVAFGLVCATCEQIADSQHRSHRQMATITNPLIRHENRMVLASTTAKAMEQMAGSSEQAAEAMEVANQARQMVQAMRTIGTHPNSSAGLRDNLLENLQAYQKRMGVQMQRFK | not failed
14 | MEDKPLGILRVHVKRGINLAIRDATTSDPYVVITLANQKLKTRVINNNCNPVWNEQLTLSIKDVNDPIRLTVFDKDRFSGDDKMGDAEIDFRPFLEAHQMELDFQKLPNGCAIKRIRPGRTNCLAEESSITWSNGKIMQEMILRLKNVECGEVELMLEWTDGPGCKGLGREGSKKTPWMPTKRLD | failed
15 | MVLETVSKTEPPPLLGPRISFSSDLSDGGDFICITPVMCKEDVVKGSVKVSDFEFLSSENVSPQRMLTADELFSEGKLLPFWQVKHSEKLKNITLKTNEEEEAEKRKVEVKKKDQEINNRDNRVTWFIDEDPSPRPPKCTVLWKELLRLKKQRNPSSSPVTARTVSSLSPSSSTSSSSSLEDAAKREEKEKEGKRGKKGLERTRSASMRIRPMIHVPICTPSKSSLPLPPLFPLSLKKNRVERRA | failed
